Usually Kd stands for the constant that tells how readily two partners part at equilibrium. A low value points to a tighter complex. The term Ki denotes a measure of affinity in units of concentration, obtained from inhibition or displacement.

Sequences and labels used below:
B4: HIS-PDZ3 protein (PSD-95 PDZ3, residues 309-401, with tag MHHHHHPRGS) (other)
chain: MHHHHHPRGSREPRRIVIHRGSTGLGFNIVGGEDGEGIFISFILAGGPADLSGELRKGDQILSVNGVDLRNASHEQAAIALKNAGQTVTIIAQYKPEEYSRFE

The target of assay [1] is T1, HIS-PDZ2 protein (PSD-95 PDZ2, residues 155-249, with tag …) (human, UniProt P78352 155-249). Nature of the assay: FP saturation binding.
The target of assay [2] is B4. Nature of the assay: FP saturation binding.
The target of assay [3] is T2, HIS-PDZ1 protein (PSD-95 PDZ1, residues 61-151, with tag …) (human, UniProt P78352 61-151).
T2 construct: expressed in E. coli
Briefly: FP saturation binding.

Assay [4] addresses T3, HIS-PDZ1-2 protein (PSD-95 PDZ1-2 tandem, residues 61-249, with tag …) (human, UniProt P78352 61-249). Briefly: FP saturation binding.
In assay [5] the target is T3, HIS-PDZ1-2 protein (PSD-95 PDZ1-2 …). Nature of the assay: FP competition, fluorescent NR2B probe; exact Ki not calculable.
The target in assay [6] is T1, HIS-PDZ2 protein (PSD-95 PDZ2, residues …). Briefly: FP competition, fluorescent NR2B probe.
For assay [7], the target named is T3, HIS-PDZ1-2 protein (PSD-95 PDZ1-2 …). Briefly: ITC / FP.
The target is the same in assay [8]. Briefly: ITC; dimeric ligand, two IETAV joined by a PEG4 linker (X = 4). Background: In ITC the heat of successive injections is recorded.
For assay [9] the target is unchanged. Briefly: FP competition, fluorescent NR2B probe.
For assay [10], the target named is B4. Nature of the assay: FP competition, fluorescent CRIPT probe.
The target of assay [11] is T4, Tat-NR2B (3).
T4 construct: also called Tat-N2B (3); 20-mer Tat-NR2B peptide
Briefly: FP competition, fluorescent CRIPT probe.

Ends that are not written are not given here. * marks the point of attachment. 5FAM = O=C1OC2(c3ccc(O)cc3Oc3cc(O)ccc32)c2ccc(C(=O)*)cc21

B1: 5-FAM/Cy5-NR2B (peptide)
peptide: 5FAM-KSGYEKLSSIESDV
modifications: also: entry also covers Cy5-NR2B: CSG linker, Cy5-maleimide on Cys
notes: Kd said to be independent of the fluorophore; also called 5-FAM-NR2B; 5-Fam-NR2B peptide
Turning to B1, the results for the Kd in assay [1], in [3] and in [4] were 3000 nM, 20 µM and 1700 nM, respectively. Moreover, the binding result in assay [2] was “no binding”.

B2: (IETAV)2PEG4 (83) (peptide)
peptide: IETAV
modifications: also: dimer: two peptides joined at N-terminal amines by amide bonds through a PEG4-diacid linker
notes: Dimeric ligand
As to B2, the results for the Ki in [5] and in assay [6] were ~100 nM and 1100 nM, respectively. Also, in assay [7], the “fold increase in affinity compared to monomeric IETAV (82)” value is 176 fold. Moreover, the Kd in assay [8] was found to be 11 nM.

B3: NR2B (1), non-fluorescent NR2B peptide KSG-YEKLSSIESDV (peptide)
peptide: KSGYEKLSSIESDV
notes: also called NR2B peptide (1); NR2B WT
As for B3, the Ki in [9] amounted to 6.8 µM. For the same molecule, in assay [10], the binding result was “no binding”.

As to B4, the binding result in assay [11] is “no binding”.
